Measured values as given in patent US20160009817A1 (Bayer, published 2016).

B1: gA200 (antibody, human IgG2, lambda, V domains shown)
VH: EVQLVESGGGLVQPGGSLRLSCAASGFTFSSYGMDWVRQAPGKGLEWVSSIRGSRGSTYYADSVKGRFTISRDNSKNTLYLQMNSLRAEDTAVYYCARLYRYWFDYWGQGTLVTVSS
VL: SYELTQPPSVSVSPGQTARITCSGDNLPKYYAHWYQQKPGQAPVVVIFYDVNRPSGIPERFSGSNSGNTATLTISGTQAMDEADYYCQAWWSSTPVFGGGTKLTVLG
modifications: Fc N-glycan
notes: Human anti-TFPI IgG from human antibody libraries, optimised; no masking domain; also called parental anti-TFPI antibody gA200; unmodified anti-TFPI antibody
B2: 3E10scFv-gA200 (bispecific antibody, human IgG2, lambda)
heavy: QVQLVESGGTLVQPGGSLRLSCAASGFSFTDAWMSWVRQAPGKELEWVSSISGSGGSTYYAGSVKGRFTISRDNSKNTLYLQMNSLRAEDTAVYYCARVLSLTDYYWYGMDVWGQGTLVTVGGGGSGGGGSGGGGSNFMLTQPHSVSASPGKTVTISCTRSSGSVASYYVQWYQQRPGSSPTTVIYEDNHRPSGVPDRFSGSIDTSSNSASLTISGLKTEDEADYYCQSYDSNNLVVFGGGTKLTVLGEGRTATSGGGLVQPGGSLRLSCAASGFTFSSYGMDWVRQAPGKGLEWVSSIRGSRGSTYYADSVKGRFTISRDNSKNTLYLQMNSLRAEDTAVYYCARLYRYWFDYWGQGTLVTVSSASTKGPSVFPLAPCSRSTSESTAALGCLVKDYFPEPVTVSWNSGALTSGVHTFPAVLQSSGLYSLSSVVTVPSSNFGTQTYTCNVDHKPSNTKVDKTVERKCCVECPPCPAPPVAGPSVFLFPPKPKDTLMISRTPEVTCVVVDVSHEDPEVQFNWYVDGVEVHNAKTKPREEQFNSTFRVVSVLTVVHQDWLNGKEYKCKVSNKGLPAPIEKTISKTKGQPREPQVYTLPPSREEMTKNQVSLTCLVKGFYPSDIAVEWESNGQPENNYKTTPPMLDSDGSFFLYSKLTVDKSRWQQGNVFSCSVMHEALHNHYTQKSLSLSPG
light: SYELTQPPSVSVSPGQTARITCSGDNLPKYYAHWYQQKPGQAPVVVIFYDVNRPSGIPERFSGSNSGNTATLTISGTQAMDEADYYCQAWWSSTPVFGGGTKLTVLGQPKAAPSVTLFPPSSEELQANKATLVCLISDFYPGAVTVAWKADSSPVKAGVETTTPSKQSNNKYAASSYLSLTPEQWKSHRSYSCQVTHEGSTVEKTVAPTECS
notes: scFv against TF fused on the N-terminus of the heavy chain of anti-TFPI IgG gA200; made in CHO cells; also called 3E10sc-gA200
B3: Ter119scFv-gA200 (bispecific antibody, human IgG2, lambda)
heavy: QVKLQESGGGLVQPGGSLKLSCVASGFTFRDHWMNWVRQAPGKTMEWIGDIRPDGSDTNYAPSVRNRFTISRDNARSILYLQMSNMRSDYTATYYCVRDSPTRAGLMDAWGQGASVTVLTGGGGSGGGGSGGGGSDIQMIQSPSVLSASVGDRVTLNCKASQNINKYLNWYQQKLGEAPKVLIYNTNNLQTGIPSRFSGSGSGTDFTLTISSLQPEDFATYFCFQHYTWPTFGGGTKLELKEGRTATSGGGLVQPGGSLRLSCAASGFTFSSYGMDWVRQAPGKGLEWVSSIRGSRGSTYYADSVKGRFTISRDNSKNTLYLQMNSLRAEDTAVYYCARLYRYWFDYWGQGTLVTVSSASTKGPSVFPLAPCSRSTSESTAALGCLVKDYFPEPVTVSWNSGALTSGVHTFPAVLQSSGLYSLSSVVTVPSSNFGTQTYTCNVDHKPSNTKVDKTVERKCCVECPPCPAPPVAGPSVFLFPPKPKDTLMISRTPEVTCVVVDVSHEDPEVQFNWYVDGVEVHNAKTKPREEQFNSTFRVVSVLTVVHQDWLNGKEYKCKVSNKGLPAPIEKTISKTKGQPREPQVYTLPPSREEMTKNQVSLTCLVKGFYPSDIAVEWESNGQPENNYKTTPPMLDSDGSFFLYSKLTVDKSRWQQGNVFSCSVMHEALHNHYTQKSLSLSPG
light: B2 light
notes: scFv against RBC fused on the N-terminus of the heavy chain of anti-TFPI IgG gA200; made in CHO cells; also called Ter119sc-gA200; T119sc-gA200

How the values were obtained:
[1] = target: T1, human tissue factor pathway inhibitor (TFPI) (human, UniProt P10646 29-282, limits assumed); experiment: SPR (Biacore), TFPI; with monkey serum albumin against antibody alone
T1 construct: also called Human TFPI
T1 sequence (looked up): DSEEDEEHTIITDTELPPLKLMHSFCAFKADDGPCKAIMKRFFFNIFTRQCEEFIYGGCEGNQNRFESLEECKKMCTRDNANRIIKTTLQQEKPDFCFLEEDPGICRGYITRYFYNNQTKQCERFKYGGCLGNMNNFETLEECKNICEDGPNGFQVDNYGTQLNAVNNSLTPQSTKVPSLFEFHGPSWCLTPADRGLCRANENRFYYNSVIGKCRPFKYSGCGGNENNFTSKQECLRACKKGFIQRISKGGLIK

[2] = target: T1, human tissue factor pathway inhibitor …; experiment: SPR (Biacore) kinetics, human TFPI immobilised; reference gA200
Method: (§1) Human TFPI was immobilized on CM4 or CM5 chip using amine coupling kit based on manufacturer's instruction. Anti-TFPI pro-drug antibodies or parental anti-TFPI antibody were flowed through the system with 10 μg/mL antibody with or without 15 μg/mL human serum albumin (HSA). The binding level was measure at 2 seconds after completion of each injection. In kinetics assay, antibodies with a series of concentrations were injected, followed by 30-minute dissociation time. The dissociation and association rate of the antibodies were modeled using BiaEvaluation software.

[3] = target: T1, human tissue factor pathway inhibitor …; experiment: SPR (Biacore) kinetics, human TFPI immobilised; antibody with HSA; reference gA200
Method: as §1

[4] = target: T1, human tissue factor pathway inhibitor …; experiment: SPR (Biacore), TFPI; antibody alone (reference)
[5] = target: T1, human tissue factor pathway inhibitor …; experiment: SPR (Biacore), TFPI; with HSA against antibody alone
[6] = target: T1, human tissue factor pathway inhibitor …; experiment: SPR (Biacore) kinetics, human TFPI immobilised; antibody with HSA
Method: as §1

[7] = target: T1, human tissue factor pathway inhibitor …; experiment: SPR (Biacore) kinetics, human TFPI immobilised
Method: as §1

| Binder | Affinity decrease (fold) [1] | Affinity decrease (fold) [2] | Affinity decrease (fold) [3] | Affinity decrease (fold) [4] | Affinity decrease (fold) [5] | Kd [6] | Kd [7] |
| --- | --- | --- | --- | --- | --- | --- | --- |
| B1 | 0.5 fold | 1 fold | 1.04 fold | 1 fold | 0.7 fold | 0.0181 nM | 0.0175 nM |
| B2 |  | 29.7 fold |  |  |  |  | 0.519 nM |
| B3 |  | 14.7 fold |  |  |  |  | 0.256 nM |
